The nature of assay [1]: Blood glucose after intramuscular injection in fasted mice. The format is in vivo, mouse. As to conditions: 0.5 U/kg intramuscular. Here is the method:
Because of the physiological role of insulin in modulating blood glucose levels, we asked whether eAAV9, with its insulin-mimetic insertion, would exert a measurable effect on the blood glucose concentration of mice. Mice were fasted as described above, and blood glucose was measured by microsampling immediately before injection of vectors to obtain a baseline value. Mice were injected in the gastrocnemius muscle with 10^9 vg of WT AAV9, eAAV9, or, as a positive control, human insulin at 0.5 U/kg, a typical therapeutic dose for a patient with diabetes mellitus type 2 (FIG. 4D). Blood glucose was then measured at 45 min, 2 h, and 4 h post injection of vectors or insulin.
Blood glucose measurement. At 4 hours before glucose measurement, mice were relocated to a cage with iso-PADS bedding (Envigo) with access to water but no food source. Mice were then anesthetized with isoflurane and their left hind limb was shaved. Blood glucose was measured with a Contour Next glucometer (Bayer) by puncturing the saphenous vein with a lancet and sampling 1 ul of venous blood by capillary action. After the first glucose measurement, mice were injected in the medial aspect of the right gastrocnemius muscle with either 10^9 vector genomes or 0.5 U/kg human insulin (Tocris). Subsequent blood glucose measurements were performed in the same way as the first. […]

A further assay deals with HEK293T cells. The class given is cell-based, human. Conditions: FLuc-encoding eAAV9; luciferase activity 24 hpt.
Assay [2] concerns the target human insulin receptor, endogenous on HEK293T / Control 293T cells (human) (UniProt P06213). The experiment in a line: cell-based or functional assay.
Assay [3] has as its target T1, IR (Homo sapiens, UniProt P06213). Conditions: cited from earlier work.
The target of assay [4] is T1, IR. As to conditions: cited from earlier work. This is another data set of the same source.
The target in assay [5] is S519(VIII)-AAV9 (enhanced AAV9), mosaic AAV9 vector with insulin-mimetic peptide S519 inserted in capsid VR-VIII (adeno-associated virus serotype 9). Description: cell-based or functional assay.

“Also recorded” adds a separate entry of the source. Where two headings read alike, the source gives them in different places.

Turning to human insulin, the blood glucose entry was “rebound effect” in assay [1] (2 and 4 hours); “sharp and statistically significant decrease” in assay [1] (45 min). Also, in the assay with HEK293T cells, the “IC50 of human insulin for inhibition of eAAV9 transduction” value is 5.2 µg/mL.

“human insulin (Tocris) (from UniProt P01308 90-110) (ligand)” had an inhibition of eAAV9 transduction of HEK293T cells by human insulin (luciferase activity), IC50 in assay [2] of 5.2 µg/mL.

“insulin-mimetic peptide GSLDESFYDWFERQLGKK (SEQ ID NO:8) [S371]”: in the assay with IR [3], the “activity on IR” value was “activates the receptor in the absence of insulin”. Moreover, the Kd with IR [4] (read-out: affinity of binding to IR) is around 40 nM.

Take “insulin-mimetic peptide, 36 amino acid linear peptide SLEEEWAQVECEVYGRGCPSGSLDESFYDWFERQLG (SEQ ID NO:7) (SLEEEWAQVECEVYGRGCPSGSLDESFYDWFERQLG) [S519]”: the “activity on IR” value in the assay with IR [3] is “behaves as an agonist; also recorded: agonist activity on IR”. The Kd in the assay with IR [4] (human IR, read-out: Kd for IR) was 0.02 nM.

As for “human IR ectodomain fused to an Fc tag (IR-Fc) (from UniProt P06213 28-956) (Fc fusion)”, the inhibition of eAAV9 transduction of HEK293T cells (luciferase activity 24 h after transduction), IC50 in assay [5] stood at 0.6 nM.

The record behind these values is US20230295238A1, “INSULIN RECEPTOR-MEDIATED ENHANCEMENT OF GENE TRANSFER” (THE SCRIPPS RESEARCH INSTITUTE, priority 2020, published 2023).
